In patent US20020173477A1:

Biological target: human Cε-containing IgE in serum of Hu-IgE transgenic mice (human Cε region and the H chain V region of the murine Mab BAT123) (human) (UniProt P01854)
Assay: cell-based or functional assay

IgE suppression in Hu-IgE transgenic mice infected with Ad-Hu-901 (mCγ2a,κ), day 4 post infection (free IgE ELISA): 40 to 90%
Substance: Hu-901 (mCγ2a,κ), intact anti-IgE antibody with humanized variable regions and murine constant regions (from UniProt P01863 1-330)
